# Substitutions are numbered along the chain they refer to.
# B1: antibody 43 (antibody, V domains shown)
# VH: QVALKESGPGILQPSQTLSLTCSFSGFSLSTFGMGVGWIRQSSGKGLEWLANIWWDDDKYYNPALKSRLTISKDASKNQAFLKIANVDTADTATYYCARIGNYGSNYWYFDVWGTGTTVTVSS
# VL: QIVLTQSPAIMSASPGERVTMTCSANSRISYMYWYQQKPGSSPRLLIYDTSNLASGVPVRFSGSGSGTSYSLTISRMEAEDAATYNCQQWSSYPLTFGAGTKLELK
# notes: mouse IgG, kappa light chain; also called clone #43; purified antibody 43
# B2: antibody 44 (antibody, V domains shown)
# VH: B1 VH with A3T, S42P, G44E, N52H, A75T, A80I, A85T, D91E, A98S
# VL: QIVLTQSPAVMSASPGEKVTMTCTASSSVYYMYWYQQTPGSSPRLLIYDTSNLASGVPVRFSGSGSGTSYSLTISRMEAEDAATYYCQQWNTYPLTFGAGTKLELK
# notes: mouse IgG, kappa light chain; also called clone #44; purified antibody 44
# B3: antibody 54 (antibody, V domains shown)
# VH: QVTLKESGPGILQPSQTLSLTCSFSGFSLSTFGLGVGWIRQPSGKGLECLAHIWWDDDKYSNPALKSRLTISKDTSKNQVFLKIANVDSADTATYFCARILNYGSNYWYFDVWGTGTTVTVSS
# VL: B1 VL with I10L, R18K, N26S, R28S, Y70F, I74V, N86Y, S91N
# notes: mouse IgG, kappa light chain; also called clone #54
# B4: antibody 57 (antibody, V domains shown)
# VH: B1 VH with A3T, S42P, N52H, A75T, A80I, T92S, Y95F, G101E
# VL: B2 VL with V10I, T24S, Y30S, T38K, L45V, I74V, T92S
# notes: mouse IgG, kappa light chain; also called clone #57
# B5: antibody 56 (antibody, V domains shown)
# VH: B1 VH with A3T, S42P, A51T, P63S, A64V, A75T, A80V, G101A, N102A
# VL: B1 VL with R18K, N26S, R28S, I29V, L45V, A54S, N86Y
# notes: mouse IgG, kappa light chain; also called clone #56
# B6: antibody 49 (antibody, V domains shown)
# VH: QVTLKESGPGILQPSQTLSLTCSFSGFSLSTFGMGVGWIRQPSGKGLEWLAHIWWDDDKYYNPALQSRLTVSKDTAKNQVFLKIANVDTADTAIYYCARVGNYGSNYWYFAVWGTGTTVTVSS
# VL: B2 VL with V10I, T24S, Y30S, T38K, T92S
# notes: mouse IgG, kappa light chain; also called clone #49
# B7: antibody 3 (antibody, V domains shown)
# VH: QVTLKESGPGILQPSQTLSLTCSFSGFSLTTFAMGIGWVRQPSGKGLEWLAHIWWDGEKYNNPVLKSRLTISKDTSKNQVFLRIANVDTPDTATYYCARISSIYYIIDNWGQGTSVTVSS
# VL: DIVLTQSPATLSVTPGHSVSLSCRASQSISNNLHWYQKKSHESPRLLIKYVSQSISGIPSRFSGSGSGTDFTLSINSVETEDFGMYFCQQSYNWPLTFGAGTKLELK
# notes: mouse IgG, kappa light chain; also called clone #3; purified antibody 3
# B8: antibody 34 (antibody, V domains shown)
# VH: QVTLKESGPGILQPSQTLSLTCSFSGFSLSTFSLGVGWIRQSSGKGLEWLAHIWWDDEKYYNPALKSRLTISKDTSKNQVFLKIANVDAADTATYYCARAYYSKSYYALDYWGQGTSVTVSS
# VL: DIQMTQSPSSLSASLGERVSLTCRASQEISGYLSWLQQKPDGTIKRLIYAASTLDSGVPKRFSGSRSGSDYSLAISSLESEDFADYYCLQYANFPFTFGSGTKLEIK
# notes: mouse IgG, kappa light chain; also called clone #34; purified antibody 34
# B9: antibody 46 (antibody, V domains shown)
# VH: QVTLKESGPGILQPSQTLSLTCSFSGFSLSTFGMGVGWIRQPSGKGLEWLAHIWWDDDNYYNQALKSRLTISKDNTKNQVFLNIANVDTADTATYYCARIRSYDYDVRYAMDYWGQGTSVTVSS
# VL: DIKMTQSPSSMYASLRERVTITCKASQDINSYLSWFQQKPGKSPKTLIYRANRLVDGVPSRFSGSGSGQDYSLTISSLEYEDLGIYYCQQYYEFPLTFGAGTRLELK
# notes: mouse IgG, kappa light chain; also called clone #46
# Target: T1, human iRhom2, endogenously expressed (human, UniProt Q6PJF5 1-856)
# T1 sequence: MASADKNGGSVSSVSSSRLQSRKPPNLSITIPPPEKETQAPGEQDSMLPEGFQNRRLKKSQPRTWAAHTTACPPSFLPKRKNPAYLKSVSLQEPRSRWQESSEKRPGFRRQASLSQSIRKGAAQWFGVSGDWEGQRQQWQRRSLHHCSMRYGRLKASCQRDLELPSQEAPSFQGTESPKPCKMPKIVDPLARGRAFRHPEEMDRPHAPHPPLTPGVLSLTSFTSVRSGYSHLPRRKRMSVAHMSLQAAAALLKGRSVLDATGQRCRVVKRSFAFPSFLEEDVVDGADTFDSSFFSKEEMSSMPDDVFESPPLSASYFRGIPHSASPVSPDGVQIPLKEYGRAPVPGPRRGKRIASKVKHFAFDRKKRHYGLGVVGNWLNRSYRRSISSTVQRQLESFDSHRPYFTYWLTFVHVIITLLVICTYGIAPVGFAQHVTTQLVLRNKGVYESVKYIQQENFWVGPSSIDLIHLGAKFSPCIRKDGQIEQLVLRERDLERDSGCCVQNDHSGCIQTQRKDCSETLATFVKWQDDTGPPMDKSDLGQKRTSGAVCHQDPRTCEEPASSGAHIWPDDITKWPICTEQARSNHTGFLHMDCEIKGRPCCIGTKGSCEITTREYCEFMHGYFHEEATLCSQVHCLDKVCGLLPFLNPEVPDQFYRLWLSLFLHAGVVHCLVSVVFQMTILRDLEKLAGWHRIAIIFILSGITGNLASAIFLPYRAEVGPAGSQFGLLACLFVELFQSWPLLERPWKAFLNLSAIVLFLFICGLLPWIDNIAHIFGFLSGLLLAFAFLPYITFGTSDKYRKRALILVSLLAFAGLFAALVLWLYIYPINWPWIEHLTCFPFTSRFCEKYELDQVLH
# Assay: cell-based or functional assay
Binder,"LPS-induced TNFα release from THP-1 cells, percent inhibition, 10 µg/ml, hybridoma-purified","LPS-induced TNFα release from THP-1 cells, percent inhibition, recombinant antibody","PMA-induced IL-6R release from THP-1 cells, percent inhibition, 1 µg/ml","PMA-induced IL-6R release from U-937 cells, percent inhibition, 1 µg/ml","PMA-induced TGFα release from PC3 cells, percent inhibition, 1 µg/ml","PMA-induced TNFα release from U-937 cells, percent inhibition, 1 µg/ml","PMA-induced HB-EGF release from THP-1 cells, percent inhibition, 3 µg/ml","PMA-induced HB-EGF release from U-937 cells, percent inhibition","PMA-induced IL-6R release from U-937 cells, percent inhibition, 3 µg/ml","PMA-induced TNFα release from U-937 cells, percent inhibition, 3 µg/ml"
B1,74.8%,78.5%,72.9%,76.1%,12.4%,78.3%,–,–,–,–
B2,32.2%,73.2%,73%,71.8%,14.1%,76.5%,67.5%,100%,82%,86.3%
B3,–,67.9%,–,–,–,–,–,–,–,–
B4,–,59.7%,–,–,–,–,–,–,–,–
B5,–,65.8%,–,–,–,–,–,–,–,–
B6,–,59.9%,–,–,–,–,–,–,–,–
B7,71.2%,59.9%,46.7%,61.8%,–,65.9%,–,–,–,–
B8,27.3%,73.8%,71.1%,69.3%,–,68.6%,64.2%,98.2%,74.6%,79.9%
B9,–,36.1%,–,–,–,–,–,–,–,–

# Target: T2, dog iRhom2 full length wild type, T7-tagged (dog, UniProt Q00M95 1-827)
# T2 construct: whole, on cells; on MEF-DKO cells; also called Dog-iR2-FL-WT-T7
# T2 sequence: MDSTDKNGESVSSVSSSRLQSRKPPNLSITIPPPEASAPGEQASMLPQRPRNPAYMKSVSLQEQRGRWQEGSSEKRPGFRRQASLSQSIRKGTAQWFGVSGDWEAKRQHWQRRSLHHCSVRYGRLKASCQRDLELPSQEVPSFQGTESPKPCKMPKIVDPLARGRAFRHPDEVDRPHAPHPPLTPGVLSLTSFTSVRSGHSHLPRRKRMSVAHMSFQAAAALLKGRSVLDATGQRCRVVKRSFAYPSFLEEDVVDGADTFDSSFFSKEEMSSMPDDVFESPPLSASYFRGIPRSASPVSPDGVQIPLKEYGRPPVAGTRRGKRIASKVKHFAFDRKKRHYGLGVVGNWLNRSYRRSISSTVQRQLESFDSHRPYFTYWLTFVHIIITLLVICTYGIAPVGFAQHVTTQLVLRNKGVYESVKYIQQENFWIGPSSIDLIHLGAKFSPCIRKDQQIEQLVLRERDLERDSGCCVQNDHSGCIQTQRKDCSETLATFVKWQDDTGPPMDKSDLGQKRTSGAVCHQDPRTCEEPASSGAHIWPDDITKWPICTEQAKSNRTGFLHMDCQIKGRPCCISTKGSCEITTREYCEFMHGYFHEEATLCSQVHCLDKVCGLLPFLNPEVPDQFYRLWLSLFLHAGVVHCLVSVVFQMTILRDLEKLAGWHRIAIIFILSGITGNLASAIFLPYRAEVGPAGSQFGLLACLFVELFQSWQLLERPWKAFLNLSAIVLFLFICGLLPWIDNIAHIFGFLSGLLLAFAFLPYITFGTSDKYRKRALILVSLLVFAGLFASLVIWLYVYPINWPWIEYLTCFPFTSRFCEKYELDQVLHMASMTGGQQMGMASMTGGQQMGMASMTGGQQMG
# Assay: FACS, MEF-DKO cells; via representative antibody 16
# Protocol: In brief, immortalized MEF-DKO-EV control cells, MEF-DKO-rhesus-iR2-FL-WT-T7 cells, MEF-DKO-cyno-iR2-FL-WT-T7 cells, MEF-DKO-dog-iR2-FL-WT-T7 cells and MEF-DKO-rabbit-iR2-FL-WT-T7 cells, as well as their respective iRhom1 counterparts, were harvested with 10 mM EDTA in PBS, washed and resuspended in FACS buffer (PBS, 3% FBS, 0.05% sodium azide), and seeded in Nunc U-bottom 96-well plates (Thermo Fisher Scientific, USA) at approximately 3×10⁵ cells per well. To pellet cells and remove supernatants, the plates were centrifuged at 1,500 rpm and 4° C. for 3 minutes. For primary staining, cells were resuspended in 100 μl per well of either FACS buffer alone (controls), mouse monoclonal anti-T7 IgG (Merck Millipore, USA) at 3 μg/ml FACS buffer or the antibodies of the invention also at 3 μg/ml FACS buffer and incubated on ice for 1 hour.
# Afterwards, plates were centrifuged at 1,500 rpm and 4° C. for 3 minutes and washed twice with 200 μl per well of FACS buffer. For secondary staining, cells were spun down and resuspended in 100 μl per well of PE-conjugated goat anti-mouse IgG F(ab′)2 detection fragment (Dianova, Germany) diluted 1:100 in FACS buffer. Protected from light, the cell suspensions were incubated on ice for 1 hour. Plates were then centrifuged at 1,500 rpm and 4° C. for 3 minutes and washed three times with 200 μl per well of FACS buffer. Finally, cells were resuspended in 150 μl per well of FACS buffer and analyzed using a BD Accuri™ C6 Plus flow cytometer (Becton Dickinson, Germany).
row,Binder,binding result
1,B1,binds
2,B2,binds
3,B3,binds
4,B4,binds
5,B5,binds
6,B6,binds
7,B7,binds
8,B8,binds
9,B9,binds

# — patent publication US20240287172A1 (SCIRHOM, published 2024)
